{
  "source": "paper PMC5025888",
  "about": "(Scientific Reports, 2016)",
  "key": {"H5N1-NS1-24mer": {"molecular_target": "H5N1-NS1-24mer (Influenza A virus …)", "sequence (O57276 30-53)": "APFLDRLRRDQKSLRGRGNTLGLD", "experiment": "ELISA", "settings": "both partners purified"}, "H1N1-PR8-NS1(RBD)": {"molecular_target": "H1N1-PR8-NS1(RBD) (Influenza A virus A/Puerto …, UniProt P03496)", "sequence (P03496 1-70)": "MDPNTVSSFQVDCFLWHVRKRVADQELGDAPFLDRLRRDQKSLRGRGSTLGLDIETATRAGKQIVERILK", "experiment": "ELISA", "settings": "both partners purified"}},
  "data": [
    {"binder": "monoclonal antibody 2H6 (antibody, V domains shown) VH: DVKLVESGGGLVNLGGSLKLSCAASGFTFSRYYMSWVRQTPEKRLELVAAINHNSGRTYYSDTVKGRFTISRDNAKNTLYLQMSSLKSEDTALYYCTRHPLIYHGNYLDYWGQGTTLTVSS VL: DIVLTQSPASLAVSLGQRATISCKASQSVDYDGDSYVTWYQQKPGQPPKLLIYVASNLESGIPARFSGSGSGTDFTLNIHPVEEEDAATYYCQQSNEDPWTFGGGTKLEIK", "values": [
      {"measurement": "binding result", "setting": "H5N1-NS1-24mer", "result": "binds"},
      {"measurement": "binding result", "setting": "H1N1-PR8-NS1(RBD)", "result": "binds"}
    ]}
  ]
}
